From paper PMC8880779

What was measured:
[1] = biological target: Human Aβ(1–42)-HiLyte™-Fluor555 (human) (UniProt P05067); assay: other fluorescence titration; kinetics of the fluorescence increase of 10 nM Aβ(1–42) HiLyte Fluor555 after addition of 10 nM CaM (1:1 molar ratio); 50 mM Hepes, 100 mM KCl, 50 µM CaCl2, pH 7.05; 24–25 °C
[2] = biological target: Human Aβ(1–42)-HiLyte™-Fluor555 (human) (UniProt P05067); assay: other fluorescence titration; kinetics of the fluorescence increase of 10 nM Aβ(1–42) HiLyte Fluor555 after addition of 5 nM CaM (series 2.5, 5, 10 nM for the maximum change); 50 mM Hepes, 100 mM KCl, 50 µM CaCl2, pH 7.05; 24–25 °C; excitation 520 nm, emission 567 nm
[3] = biological target: Human Aβ(1–42)-HiLyte™-Fluor555 (human) (UniProt P05067); assay: other fluorescence titration; reversion of the fluorescence increase: 100 nM non-labelled Aβ(1–42) added after complex formation of 10 nM Aβ(1–42) HiLyte Fluor555 with 5 nM CaM; same buffer, 24–25 °C

Q: Which results are given for “calmodulin (CaM) (from UniProt P62157 1-149) (natural protein; other documents disagree on this pair)”?
A: half-time of complex formation (10 nM CaM) [1]: 38 s; rate constant of the kinetic process of complex formation (10 nM CaM) [1]: 0.018 s⁻¹; stoichiometry N (Aβ(1–42) per CaM) [2]: 2; time needed for the decay to half the increase of fluorescence [3]: 900 s
